According to patent US10407503B2, “Fully human antibodies and fragments recognizing human c-Met” (THE REGENTS OF THE UNIVERSITY OF CALIFORNIA, priority 2012, dated 2019):

How the values were obtained:
[1] = target: T1, c-MET on the surface of Hcc827 or Hcc827-GR6 cells (human, UniProt P08581 25-1390); assay: flow cytometry on Hcc827-GR6 cells, one-site total binding fit
T1 construct: whole, on cells; The cells express the receptor endogenously, and MET is amplified in Hcc827-GR6; also called cell surface MET
Description: (§1) The affinities of the cys-diabodies were evaluated by flow cytometry. Serial diluted cys-diabodies were incubated with Hcc827-GR6 cells at 4 degrees for 2 hours. The cys-diabodies were detected with 1/100 mouse anti-c-Myc antibody (Sigma, Cat# M4439) and stained with 1/100 PE or FITC conjugated goat anti mouse IgG polyclonal antibody (Jackson ImmunoResearch) in flow buffer.
(§2) The affinity of these 3 cys-diabodies were evaluated by flow cytometry. The concentrations of the purified proteins were determined by their A280, measured with Nanodrop 2000 (Thermal Scientific), and their calculated extinction coefficient (ProtParam tool, expasy.org). The binding curve was fitted with one-site total binding model by GraphPad Prism.

[2] = target: T1, c-MET on the surface of Hcc827 or …; assay: flow cytometry binding curve on cells (the sheet does not name them; paragraph 217: Hcc827 GR6 cell line)
Description: as §1, §2

[3] = target: T2, mouse MET-hIgG Fc fusion protein (Sino Biological Inc.) (mouse; human, UniProt P16056 25-931, limits assumed); assay: capture ELISA: cys-diabody coated on the plate, mouse MET-hIgG Fc applied, detected with alkaline phosphatase anti-human IgG
T2 construct: Bought protein; also called mouse MET protein; MET-hFc
Description: 1 µg of purified anti-MET cys-diabodies in 100 µL PBS were used to coat each well at 4 degree overnight. Anti-EpCAM cys-diabody or 2% milk-PBS were used for negative controls. The overnight coated plate was then washed with PBS and blocked with 2% milk-PBS at 37 degree for 2 hours. The plate was then washed with PBS before adding 0.1 µg human or mouse MET-hIgG Fc fusion protein (purchased from Sino Biological Inc.) in 100 µL, 2% milk-PBS to each well. The plate was incubated at room temperature for 1.5 hours, and then washed with PBS-Tween and PBS. The captured human or mouse MET-hIgG Fc were detected with alkaline phosphatase conjugated goat anti-human IgG.
C2, H2 and H5 cys-diabodies were used to coat 96-well ELISA plate to capture human or mouse MET-hIgG Fc fusion protein. The human IgG Fc on the fusion protein was detected with alkaline phosphatase conjugated goat anti-human IgG. The results in FIG. 4 show H2 cys-diabody can bind to both human and mouse MET protein, while C2 and H5 cys-diabodies show minimal cross reactivity to the mouse MET. Anti-EpCAM H9 cys-diabody or 2% milk-PBS were used as negative controls.

T1 sequence (P08581 25-1390): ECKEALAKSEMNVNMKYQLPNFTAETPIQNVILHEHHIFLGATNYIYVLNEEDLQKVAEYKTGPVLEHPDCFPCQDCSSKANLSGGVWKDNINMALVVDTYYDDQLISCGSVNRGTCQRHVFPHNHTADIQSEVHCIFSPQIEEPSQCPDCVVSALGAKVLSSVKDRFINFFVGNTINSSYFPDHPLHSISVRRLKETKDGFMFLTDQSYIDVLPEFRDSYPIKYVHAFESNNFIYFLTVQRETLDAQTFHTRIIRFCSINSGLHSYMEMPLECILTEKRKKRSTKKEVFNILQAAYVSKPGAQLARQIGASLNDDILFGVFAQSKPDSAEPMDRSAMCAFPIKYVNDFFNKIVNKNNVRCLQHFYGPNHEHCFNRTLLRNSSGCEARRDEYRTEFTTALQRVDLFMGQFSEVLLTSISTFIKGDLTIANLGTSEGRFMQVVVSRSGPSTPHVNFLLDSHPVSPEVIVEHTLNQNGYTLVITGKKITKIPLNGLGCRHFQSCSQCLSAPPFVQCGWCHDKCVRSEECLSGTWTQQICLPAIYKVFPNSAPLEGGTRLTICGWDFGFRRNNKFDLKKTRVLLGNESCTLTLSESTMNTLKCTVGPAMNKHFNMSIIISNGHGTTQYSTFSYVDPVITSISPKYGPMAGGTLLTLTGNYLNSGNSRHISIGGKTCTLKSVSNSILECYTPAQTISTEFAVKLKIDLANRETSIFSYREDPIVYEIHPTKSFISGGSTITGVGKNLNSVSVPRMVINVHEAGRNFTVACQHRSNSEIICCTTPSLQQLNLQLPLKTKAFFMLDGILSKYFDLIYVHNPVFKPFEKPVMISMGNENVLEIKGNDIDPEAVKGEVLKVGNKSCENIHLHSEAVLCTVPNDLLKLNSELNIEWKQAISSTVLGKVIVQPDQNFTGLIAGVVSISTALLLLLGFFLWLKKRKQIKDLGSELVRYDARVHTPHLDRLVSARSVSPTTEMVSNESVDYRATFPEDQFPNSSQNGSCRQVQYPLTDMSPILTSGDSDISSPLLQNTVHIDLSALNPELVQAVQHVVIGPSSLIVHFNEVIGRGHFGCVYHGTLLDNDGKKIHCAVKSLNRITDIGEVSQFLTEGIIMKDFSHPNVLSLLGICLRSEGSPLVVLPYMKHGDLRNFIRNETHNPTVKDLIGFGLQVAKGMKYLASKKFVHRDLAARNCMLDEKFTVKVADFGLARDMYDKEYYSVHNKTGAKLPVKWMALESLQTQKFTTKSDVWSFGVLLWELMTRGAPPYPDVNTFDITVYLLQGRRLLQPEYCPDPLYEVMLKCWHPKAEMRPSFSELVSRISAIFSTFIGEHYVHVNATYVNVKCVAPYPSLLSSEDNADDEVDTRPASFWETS
T2 sequence (P16056 25-931 limits assumed): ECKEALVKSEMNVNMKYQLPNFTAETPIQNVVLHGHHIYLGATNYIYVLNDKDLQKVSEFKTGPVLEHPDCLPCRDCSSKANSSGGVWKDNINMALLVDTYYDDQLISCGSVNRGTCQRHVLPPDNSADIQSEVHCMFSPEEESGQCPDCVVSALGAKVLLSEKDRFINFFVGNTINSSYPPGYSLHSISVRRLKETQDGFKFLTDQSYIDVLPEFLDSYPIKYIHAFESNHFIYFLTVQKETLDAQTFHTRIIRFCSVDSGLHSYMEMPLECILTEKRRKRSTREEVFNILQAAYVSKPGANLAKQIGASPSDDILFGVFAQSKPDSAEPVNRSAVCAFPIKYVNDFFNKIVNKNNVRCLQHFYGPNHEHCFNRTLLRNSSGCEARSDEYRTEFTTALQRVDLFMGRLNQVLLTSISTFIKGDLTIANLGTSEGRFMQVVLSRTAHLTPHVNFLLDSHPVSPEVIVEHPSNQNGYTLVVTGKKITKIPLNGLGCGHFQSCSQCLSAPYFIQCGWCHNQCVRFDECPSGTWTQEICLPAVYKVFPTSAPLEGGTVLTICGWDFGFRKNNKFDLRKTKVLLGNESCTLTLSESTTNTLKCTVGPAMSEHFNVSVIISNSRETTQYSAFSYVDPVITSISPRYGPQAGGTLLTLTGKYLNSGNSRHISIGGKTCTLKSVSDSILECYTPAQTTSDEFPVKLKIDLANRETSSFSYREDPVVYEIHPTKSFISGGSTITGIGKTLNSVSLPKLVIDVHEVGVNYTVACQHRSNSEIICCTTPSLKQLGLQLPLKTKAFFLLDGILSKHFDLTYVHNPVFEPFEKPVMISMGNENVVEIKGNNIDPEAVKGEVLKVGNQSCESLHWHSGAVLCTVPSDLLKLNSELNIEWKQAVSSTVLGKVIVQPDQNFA

B1: C2 cys-diabody (other)
chain: QVQLQESGGGLVQPGGSLRLSCAASGFTFSSYAMSWVRQAPGKGLEWVSAISGSGGSTYYADSVKGRFTISRDNSKNTLYLQMNSLRAEDTAVYYCASQHVGEQSRYFDYWGQGTLVTVSSGGGGGSDIVMTQSPSSLSASIGDRVTITCRASHSISSYVNWYQKKPGKAPNLLIYAASYLPRGVPSRFSGSGLGTDFTLTISNLQPEDFATYYCQESYSTPYSFGQGTKVDIKRAAAEQKLISEEDLNGAAHHHHHHC
notes: Expressed in E. coli and purified through the His tag; also called C2 diabody
[1]
  Kd: 2.4 nM
[2]
  Kd: 2 nM
[3]
  binding result: no binding

B2: H5 cys-diabody (other)
chain: QVQLQESGGGLVQPGGSLRLSCAASGFTFSNYAMSWVRQAPGKGLEWVSAISGSGGSTYYADSVKGRFTISRDNSKNTLYLQMNSLRAEDTAVYYCAKDRFRAAAYWGQGTLVTVSSGGGGGSQSVLTQPPSVSAAPGQKVTISCTGSSSNIGAGYDVHWYQQLPGTAPKLLIYGNSNRPSGVPDRFSGSKSGTSASLAISGLQSEDEADYYCAAWDDILNGEIFGGGTKVTVLGAAAEQKLISEEDLNGAAHHHHHHC
notes: Expressed in E. coli and purified through the His tag; also called H5 diabody
[1]
  Kd: 4.6 nM
[2]
  Kd: 4.7 nM
[3]
  binding result: no binding
